# Where no end group is shown, it is not given here. [ ]: non-standard residue; d: D form. pY = N[C@@H](Cc1ccc(OP(=O)(O)O)cc1)C(=O)O
# T1: PpYLKTK (Stat3-derived pTyr705 peptide)
# T1 construct: SPR analyte; also called pY705Stat3; Stat3 pY705 peptide
# T1 peptide: P[pY]LKTK
# T2: GpYIKTE (Stat1 pY701 peptide)
# T2 construct: SPR analyte; also called pY701Stat1; Stat1 phosphopeptide
# T2 peptide: G[pY]IKTE
# T3: PEpYINQS (pY1068 peptide of EGFR)
# T3 construct: SPR analyte; also called pY1068EGFR
# T3 peptide: PE[pY]INQS
# T4: GpYVKPQ (pTyr peptide of Stat5)
# T4 construct: SPR analyte; also called pY694Stat5; pY695Stat5
# T4 peptide: G[pY]VKPQ
# Key:
# [1] = biological target: T1, PpYLKTK (Stat3-derived pTyr705 peptide); test: SPR (SensiQ), His-tagged protein immobilised on HisCap chip, pTyr peptide as analyte
# [2] = biological target: T2, GpYIKTE (Stat1 pY701 peptide); test: as above
# [3] = biological target: T3, PEpYINQS (pY1068 peptide of EGFR); test: as above
# [4] = biological target: T4, GpYVKPQ (pTyr peptide of Stat5); test: as above
# [5] = biological target: T4, GpYVKPQ (pTyr peptide of Stat5); test: SPR (SensiQ); His-tagged full-length Stat3 immobilised on a HisCap sensor chip, GpYVKPQ passed over as analyte; sensorgram shown at 100 µM
# [6] = biological target: T5, human epidermal growth factor receptor (EGFR) on cells (human, UniProt P00533 25-1210); test: Fluorescence and confocal microscopy, fluorescently-labeled SPI and anti-EGFR immunostaining in MDA-MB-231 and NIH3T3/hEGFR cells
# T5 construct: whole, on cells; SPI is said to associate with the pTyr motifs of the receptor's cytoplasmic tail inside cells; also called hEGFR; EGF receptor
# Description: Fluorescence imaging and immunofluorescence with laser-scanning confocal microscopy.
Kd [1] [µM],Kd [2] [µM],Kd [3] [µM],Kd [4] [µM],Kd [5] [µM],binding result [6],Binder
0.9,4.4,0.6,1200,1140,,His-tagged Stat3 (full-length Stat3) (other) MAQWNQLQQLDTRYLKQLHQLYSDTFPMELRQFLAPWIESQDWAYAASKESHATLVFHNLLGEIDQQYSRFLQESNVLYQHNLRRIKQFLQSRYLEKPMEIARIVARCLWEESRLLQTAATAAQQGGQANHPTAAVVTEKQQMLEQHLQDVRKRVQDLEQKMKVVENLQDDFDFNYKTLKSQGDMQDLNGNNQSVTRQKMQQLEQMLTALDQMRRSIVSELAGLLSAMEYVQKTLTDEELADWKRRQQIACIGGPPNICLDRLENWITSLAESQLQTRQQIKKLEELQQKVSYKGDPIVQHRPMLEERIVELFRNLMKSAFVVERQPCMPMHPDRPLVIKTGVQFTTKVRLLVKFPELNYQLKIKVCIDKDSGDVAALRGSRKFNILGTNTKVMNMEESNNGSLSAEFKHLTLREQRCGNGGRANCDASLIVTEELHLITFETEVYHQGLKIDLETHSLPVVVISNICQMPNAWASILWYNMLTNNPKNVNFFTKPPIGTWDQVAEVLSWQFSSTTKRGLSIEQLTTLAEKLLGPGVNYSGCQITWAKFCKENMAGKGFSFWVWLDNIIDLVKKYILALWNEGYIMGFISKERERAILSTKPPGTFLLRFSESSKEGGVTFTWVEKDISGKTQIQSVEPYTKQQLNNMSFAEIIMGYKIMDATNILVSPLVYLYPDIPKEEAFGKYCRPESQEHPEADPGSAAPYLKTKFICVTPTTCSNTIDLPMSPRTLDSLMQFGNNGEGAEPSAGGQFESLTFDMDLTSECATSPM
,,,,,binds,"FISKERERAILSTKPPGTFLLRFSESSK (5-carboxyfluorescein attached to the amino-terminus, Used for cell uptake and colocalisation microscopy; also called fluorescently-labeled SPI) [5-carboxyfluorescein-labeled SPI]"
